Data published in patent US20240390486A1.
Positions count from the first letter of the chain named.

T1: peanut (Arachis hypogaea) allergen Ara h 6 (Arachis hypogaea) (UniProt Q647G9)
T1 sequence: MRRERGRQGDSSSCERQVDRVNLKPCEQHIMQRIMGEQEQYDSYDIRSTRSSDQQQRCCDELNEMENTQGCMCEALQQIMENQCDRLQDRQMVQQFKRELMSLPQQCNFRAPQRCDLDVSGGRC

B1: human IgE mAb 8F3 (antibody, from a related filing, V domains shown)
VH: QLQLQESGPGLVKPSETLSLTCTVSDASIDTPSYFWSWIRQPPGKGLEWIGSIYYTGNKYSNPSLKSRVTMSVDTPKRQFSLRLSSVTAADTAVYYCARYVDYVWLRAFDIWGQGTRVTVSS
VL: EIVLTQSPATLSLSPGERATLSCRASPSAGRFLAWYQQRPGQAPRLLIYDASKRATDTPARFSGSGSGTDFNLTIASLEPEDFAVYYCQHRSNWPLTFGGGTKVEIK
B2: human IgE mAb 1A8 (antibody, from a related filing, V domains shown)
VH: QLQLQESGPGLVKPSETLSLTCSVSDDSISTPSYFWTWIRQPPGKGLEWIASIYYTGTTYYNPSLKSRVTLSVDTPKRQFFLRLSSVTAADTAVYYCARYLDYVWLRAFDVWGQGAMVTVSS
VL: B1 VL with A29V, R39K, K53Q, T58I, G64A, N72T, A76D, V85I, L96V, K103R
B3: human IgE mAb 15C2 (antibody, from a related filing, V domains shown)
VH: QVQLVQSESELKKPGASVKISCKASGYDLTKYAMNWVRQAPGQGLEWMGWINTNTAKPTYAQGFTGRFVFSLDTSVRTIYLEISNLKAEDTAIYYCSRDGSGASWGQGTLVTVSS
VL: DIQMTQSPSTLSASVGDRVTITCRASQNIGRWLAWHQQKPGKAPKVLITKASNLESGVPSRFTGSGSGTDFTLTITSLQPDDFATYYCQQYTTYSGTFGQGTRVEIK
B4: human IgE mAb 26A5 (antibody, from a related filing, V domains shown)
VH: QVQLVQSGSELRKPGASVKVSCKASGYTFTKYGMNWVRQAPGQGLEWMGWINTNTAKPTYAQDFTGRFVFSLDTSVNTAYLEISGLKAEDTAVYYCATDGSEGSWGQGTLVTVSS
VL: B3 VL with N28S, R31T, K42T, T49Y, E55K, T63S, T76S, F83V, T92N
B5: human IgE mAb 20M10 (antibody, from a related filing, V domains shown)
VH: EVQLVESGGGLVKPGGSLRLSCTVSGFTFNMHSMNWVRQAPGKGLEWVSFISSTSTYIYYPDSVKGRFTVSRDNSKNSLYLQMTSLRAEDTAVYYCVRRGRGGAARALDNWGQGTLVTVSS
VL: SYVLPQTPSLSVAPGQTATISCGGNNTGSKSVHWYQQKPGQAPLLVVYDNSDRPSGIPERFSGSNSGNTATLTLSRVEAEDEADYYCQVWDSTIDHVIFGGGTKLTVL
B6: human IgE mAb 21C10 (antibody, from a related filing, V domains shown)
VH: EVQLVESGGGLVKPGGSLRLSCAASGFILSRSSMSWVRQAPGKGLEWVSYISSTSSHIYYADSLKGRFTISRDNTENSVYLQMSSLRAEDTGVYYCARKTNGAWFLDLWGRGTLVTVSS
VL: QSVLTQPPSVSGAPGQRVTISCTGSSSNIGAGSDVHWYQQFPGSAPHVLIYGNNQRPSGVPDRFSASKSGTSASLAITGLQADDEADYYCQSYDYDLSGSWVFGGGTKLTVL

target: T1, peanut (Arachis hypogaea) allergen Ara h 6 (Arachis hypogaea); test: EC50 of IgE mAb on allergen, Table 1; method not stated

B1 was tested. Which EC50 did it give?
Its EC50 is 3.8 ng/mL.

B2 was tested. Which EC50 did it give?
The EC50 was 5 ng/mL.

With B3 as the binder, how does the EC50 read?
The EC50 was 31.5 ng/mL.

How did the EC50 turn out when B4 was run?
The EC50 was 10.1 ng/mL.

How did the EC50 turn out when B5 was run?
Its EC50 is 5.3 ng/mL.

How did the EC50 turn out when B6 was run?
The EC50 was 3.2 ng/mL.
